Reference: patent publication US20170052184A1

What was measured:
[1] = biological target: C113T109N biotin labeled HCV core peptide (hepatitis C virus); experiment: EIA; Ab 7.813 ng/mL captured on anti-mouse Fc; bt-peptide 500 ng/mL
[2] = biological target: 92-133 biotin labeled HCV core peptide (hepatitis C virus) (UniProt P26664); experiment: as above
[3] = biological target: Mut1T110N biotin labeled HCV core peptide (hepatitis C virus); experiment: as above
[4] = biological target: Mut6T110S biotin labeled HCV core peptide (hepatitis C virus); experiment: as above
[5] = biological target: C113T109N biotin labeled HCV core peptide (hepatitis C virus); experiment: EIA; Ab 2000 ng/mL captured on anti-mouse Fc; bt-peptide 500 ng/mL
[6] = biological target: 92-133 biotin labeled HCV core peptide (hepatitis C virus) (UniProt P26664); experiment: as above
[7] = biological target: Mut1T110N biotin labeled HCV core peptide (hepatitis C virus); experiment: as above
[8] = biological target: Mut6T110S biotin labeled HCV core peptide (hepatitis C virus); experiment: as above
[9] = biological target: C113T109N biotin labeled HCV core peptide (hepatitis C virus); experiment: EIA; Ab 15.625 ng/mL captured on anti-mouse Fc; bt-peptide 500 ng/mL
[10] = biological target: 92-133 biotin labeled HCV core peptide (hepatitis C virus) (UniProt P26664); experiment: as above
[11] = biological target: Mut1T110N biotin labeled HCV core peptide (hepatitis C virus); experiment: as above
[12] = biological target: Mut6T110S biotin labeled HCV core peptide (hepatitis C virus); experiment: as above
[13] = biological target: C113T109N biotin labeled HCV core peptide (hepatitis C virus); experiment: EIA; Ab 31.25 ng/mL captured on anti-mouse Fc; bt-peptide 500 ng/mL
[14] = biological target: 92-133 biotin labeled HCV core peptide (hepatitis C virus) (UniProt P26664); experiment: as above
[15] = biological target: Mut1T110N biotin labeled HCV core peptide (hepatitis C virus); experiment: as above
[16] = biological target: Mut6T110S biotin labeled HCV core peptide (hepatitis C virus); experiment: as above
[17] = biological target: C113T109N biotin labeled HCV core peptide (hepatitis C virus); experiment: EIA; Ab 500 ng/mL captured on anti-mouse Fc; bt-peptide 500 ng/mL
[18] = biological target: 92-133 biotin labeled HCV core peptide (hepatitis C virus) (UniProt P26664); experiment: as above
[19] = biological target: Mut1T110N biotin labeled HCV core peptide (hepatitis C virus); experiment: as above
[20] = biological target: Mut6T110S biotin labeled HCV core peptide (hepatitis C virus); experiment: as above
[21] = biological target: C113T109N biotin labeled HCV core peptide (hepatitis C virus); experiment: EIA; Ab 1000 ng/mL captured on anti-mouse Fc; bt-peptide 500 ng/mL
[22] = biological target: 92-133 biotin labeled HCV core peptide (hepatitis C virus) (UniProt P26664); experiment: as above
[23] = biological target: Mut1T110N biotin labeled HCV core peptide (hepatitis C virus); experiment: as above
[24] = biological target: Mut6T110S biotin labeled HCV core peptide (hepatitis C virus); experiment: as above
[25] = biological target: C113T109N biotin labeled HCV core peptide (hepatitis C virus); experiment: EIA; Ab 1.953 ng/mL captured on anti-mouse Fc; bt-peptide 500 ng/mL
[26] = biological target: 92-133 biotin labeled HCV core peptide (hepatitis C virus) (UniProt P26664); experiment: as above
[27] = biological target: Mut1T110N biotin labeled HCV core peptide (hepatitis C virus); experiment: as above
[28] = biological target: Mut6T110S biotin labeled HCV core peptide (hepatitis C virus); experiment: as above
[29] = biological target: C113T109N biotin labeled HCV core peptide (hepatitis C virus); experiment: EIA; Ab 125 ng/mL captured on anti-mouse Fc; bt-peptide 500 ng/mL
[30] = biological target: 92-133 biotin labeled HCV core peptide (hepatitis C virus) (UniProt P26664); experiment: as above
[31] = biological target: Mut1T110N biotin labeled HCV core peptide (hepatitis C virus); experiment: as above
[32] = biological target: Mut6T110S biotin labeled HCV core peptide (hepatitis C virus); experiment: as above

Substance: HCV C11-3 monoclonal antibody
- signal at 492 nm [1]: 0.119 OD 492 nm
- signal at 492 nm [2]: 0.562 OD 492 nm
- signal at 492 nm [3]: 0.0966 OD 492 nm
- signal at 492 nm [4]: 0.344 OD 492 nm
- signal at 492 nm [5]: 0.0707 OD 492 nm
- signal at 492 nm [6]: 1.45 OD 492 nm
- signal at 492 nm [7]: 0.0915 OD 492 nm
- signal at 492 nm [8]: 1.73 OD 492 nm
- signal at 492 nm [9]: 0.116 OD 492 nm
- signal at 492 nm [10]: 1.01 OD 492 nm
- signal at 492 nm [11]: 0.11 OD 492 nm
- signal at 492 nm [12]: 0.807 OD 492 nm
- signal at 492 nm [13]: 0.16 OD 492 nm
- signal at 492 nm [14]: 1.55 OD 492 nm
- signal at 492 nm [15]: 0.107 OD 492 nm
- signal at 492 nm [16]: 1.54 OD 492 nm
- signal at 492 nm [17]: 0.0882 OD 492 nm
- signal at 492 nm [18]: 1.95 OD 492 nm
- signal at 492 nm [19]: 0.0765 OD 492 nm
- signal at 492 nm [20]: 2.24 OD 492 nm
- signal at 492 nm [21]: 0.0806 OD 492 nm
- signal at 492 nm [22]: 1.87 OD 492 nm
- signal at 492 nm [23]: 0.0721 OD 492 nm
- signal at 492 nm [24]: 2.15 OD 492 nm
- signal at 492 nm [25]: 0.114 OD 492 nm
- signal at 492 nm [26]: 0.134 OD 492 nm
- signal at 492 nm [27]: 0.0854 OD 492 nm
- signal at 492 nm [28]: 0.0964 OD 492 nm
- signal at 492 nm [29]: 0.147 OD 492 nm
- signal at 492 nm [30]: 1.83 OD 492 nm
- signal at 492 nm [31]: 0.127 OD 492 nm
- signal at 492 nm [32]: 2.02 OD 492 nm
